According to the supplement of paper PMC9732359:
± gives the uncertainty stated by the source.

Assay: protein stability index of a GFP-peptide fusion (yeast GPS) (PSI 1-4); higher = more stable; sorted into four equal gates, so the index is relative within each strain
Method in brief: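 Plasmids in a pooled yeast library fused tiled 17-residue yeast protein peptides downstream of GFP and also expressed Cherry. Mid-log cultures grown without leucine were sorted into four equal gates by GFP/Cherry fluorescence ratio. Each gate's plasmids were PCR-amplified and Illumina-sequenced, and reads were matched to strains by barcodes. The protein stability index is derived by multiplying each gate's read frequency by its gate number and summing the results.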

Row | Sequence | protein stability index (doa10∆) | protein stability index (pdr5∆) | protein stability index (san1∆) | protein stability index (ubr1∆)
1 | LTQEELERIVQIMQNPT [RPS18A] | 2.64 ± 0.099 | 3.08 ± 0.11 | 2.93 ± 0.064 | 2.75 ± 0.12
2 | FNEENGEDSTKPLGPCD [POP1] | 3.34 ± 0.14 |  |  | 
3 | RKNRYVILQSDLEEAYA [RPT3] | 2.41 ± 0.22 | 2.23 ± 0.15 | 2.1 ± 0.17 | 2.11 ± 0.11
4 | NELLEMVGLASGNDSMA [BRR2] | 2.59 ± 0.094 | 2.1 ± 0.072 | 3.11 ± 0.077 | 2.32 ± 0.057
5 | DVYNRELDEHTTQIDLF [BRR2] | 3.07 ± 0.07 | 2.73 ± 0.056 | 2.9 ± 0.046 | 2.41 ± 0.04
6 | IQFLTIGAGVPSLEVAS [FAS1] | 1.18 ± 0.037 | 1.24 ± 0.056 | 1.2 ± 0.079 | 1.11 ± 0.039
7 | GGVPTTSFGQPQSAPNQ [YOR098C/NUP1] | 2.33 ± 0.071 | 1.99 ± 0.085 | 2.36 ± 0.11 | 2.15 ± 0.095
8 | SARGIETRPAQVILPMS [FAS2] | 3.06 ± 0.08 | 2.93 ± 0.073 | 3 ± 0.068 | 3.16 ± 0.082
9 | LNELYQTQQDLPKVRYN [NSL1] | 3.1 ± 0.042 | 3.12 ± 0.052 | 2.96 ± 0.039 | 3.03 ± 0.038
10 | NLRLKILTIIEEYKKSL [GRR1] | 1.65 ± 0.068 | 1.6 ± 0.055 | 1.86 ± 0.083 | 1.61 ± 0.07
11 | FLDSVHKQGSSYVAVLG [POP7] | 2.6 ± 0.045 | 2.17 ± 0.037 | 2.38 ± 0.057 | 2.51 ± 0.033
12 | IGVIAGGGRVDKPLLKA [RPL2A] | 3.2 ± 0.088 | 3.16 ± 0.09 | 3.05 ± 0.11 | 2.98 ± 0.066
13 | GYILEGEELAFYLRRLT [RPS8A] | 1.26 ± 0.078 | 1.41 ± 0.07 | 1.24 ± 0.17 | 1.31 ± 0.25
14 | KFFHNGMIYNKLFVSKE [FAS2] | 2.87 ± 0.089 | 2.54 ± 0.086 | 2.38 ± 0.12 | 2.58 ± 0.077
15 | DKKASMIISGSRDKTIK [ASC1] | 2.2 ± 0.17 | 2.54 ± 0.092 | 2.63 ± 0.096 | 1.96 ± 0.079
16 | QDNKKIYVHVRRSTPFS [ESC2] | 2.34 ± 0.049 | 2.49 ± 0.049 | 2.61 ± 0.049 | 2.64 ± 0.04
17 | HVKNFGFANSLTFILGQ [YML031W/NDC1] | 1.56 ± 0.12 | 1.74 ± 0.076 | 1.42 ± 0.13 | 2.27 ± 0.059
18 | PLKIHRTPYLTSLKKIK [SWI1] | 1.81 ± 0.054 | 1.82 ± 0.043 | 1.75 ± 0.07 | 1.79 ± 0.039
19 | REISNFSKGDADVLVDR [SRP72] | 3.22 ± 0.098 | 3.19 ± 0.096 | 3.03 ± 0.097 | 3.06 ± 0.079
20 | DLTQLLEKERSILDDIK [SMC4] | 3.22 ± 0.14 | 2.98 ± 0.08 | 2.66 ± 0.13 | 3.16 ± 0.043
21 | VISSGPLAAGNFVSEKG [RPC53] | 2.81 ± 0.093 | 3.13 ± 0.11 | 3.14 ± 0.094 | 2.48 ± 0.078
22 | NLQVELLSEHDDHNGEV [YGL100W/SEH1] | 3.12 ± 0.088 | 3.2 ± 0.071 | 2.83 ± 0.06 | 3.37 ± 0.055

Row | Sequence | protein stability index (doa10∆) | protein stability index (pdr5∆) | protein stability index (san1∆) | protein stability index (ubr1∆)
23 | IHGVLKNVDREVVSEAI [FAS2] | 3.19 ± 0.1 | 3.4 ± 0.3 | 3.3 ± 0.14 | 
24 | VNAITVAQQQVQRQIEQ [SNF5] |  | 3.14 ± 0.2 |  | 3 ± 0.17
25 | KFLQEFINLLLNCCGSV [IRR1] | 2.07 ± 0.11 | 1.74 ± 0.091 | 1.57 ± 0.11 | 1.8 ± 0.062
26 | DRGLSIKLNGSTLLCTD [SNU114] | 3.17 ± 0.14 | 2.76 ± 0.08 | 2.34 ± 0.092 | 3 ± 0.2
27 | RKKTPAGDWKYDRQLSS [FAS2] | 1.25 ± 0.066 | 2.43 ± 0.092 | 1.59 ± 0.19 | 1.32 ± 0.079
28 | KIAYRGVKDCQEGLITT [SSN2] | 2.08 ± 0.23 |  | 2.91 ± 0.22 | 2.7 ± 0.22
29 | QSDLEIITQYVFESLEI [ARP9] | 2.35 ± 0.067 | 3.12 ± 0.07 | 2.52 ± 0.082 | 3.01 ± 0.08
30 | SPELSLQRHLSLGIRPC [RRP43] | 2.54 ± 0.041 | 2.65 ± 0.053 | 2.73 ± 0.052 | 3.06 ± 0.048
31 | KNRSNRKRFHSQSKGTV [YOR098C/NUP1] | 3.21 ± 0.18 | 3.11 ± 0.18 | 2.89 ± 0.16 | 3.26 ± 0.19
32 | MNYLLDNKINEIKLLEI [CSI1] | 2.91 ± 0.12 | 2.81 ± 0.098 | 2.67 ± 0.069 | 2.89 ± 0.091
33 | VELPYGAHGYSGFYTFS [PRE1] | 2.92 ± 0.17 | 2.32 ± 0.17 | 2.9 ± 0.13 | 2.83 ± 0.095
34 | SSWQIYSDENDPSISNN [RRP4] | 2.48 ± 0.12 | 3.16 ± 0.11 | 3.06 ± 0.072 | 3.33 ± 0.14
35 | RGPRNSREAVRHFGMGP [RPL18A] | 2.53 ± 0.25 | 2.86 ± 0.18 |  | 
36 | EATLLTNSNNGSSNNNT [SNF5] | 3 ± 0.087 | 3.32 ± 0.13 | 3.14 ± 0.1 | 3.21 ± 0.065
37 | LRELSCCINAAFLALVD [RRP46] | 2.38 ± 0.059 | 2.81 ± 0.074 | 2.88 ± 0.051 | 2.65 ± 0.065
38 | AAEKSFKPPKNKYKVVR [SEC65] | 3 ± 0.28 | 3.08 ± 0.19 | 3.05 ± 0.12 | 3.15 ± 0.12
39 | VNDNDERAARVVKGRVE [RPO31] | 3.17 ± 0.16 | 3.36 ± 0.15 | 3.15 ± 0.25 | 3.4 ± 0.091
40 | GTISIQLKNGLLEKYNT [MTR3] | 2.28 ± 0.059 | 2.5 ± 0.073 | 2.42 ± 0.082 | 2.43 ± 0.037
41 | RAASIRARVKAFPKDDR [RPL3] | 1.22 ± 0.035 | 1.46 ± 0.051 | 1.27 ± 0.078 | 1.5 ± 0.039
42 | LLEPPAKELQGIDPDET [RPO31] | 3.19 ± 0.15 | 3.11 ± 0.14 | 3.31 ± 0.082 | 3.18 ± 0.12
43 | ANVNASAMPAPYMPYYY [DSN1] | 2.76 ± 0.06 | 2.88 ± 0.077 | 2.79 ± 0.059 | 2.65 ± 0.055
44 | GLNWLISLHENKLSGIL [ISW2] | 2.05 ± 0.056 | 2.06 ± 0.062 | 2.11 ± 0.082 | 2.31 ± 0.092
